PMC2529310, “An amphioxus orthologue of the estrogen receptor that does not bind estradiol: Insights into estrogen receptor evolution”

Biological target: T1, amphioxus ER (amphiER) (Branchiostoma floridae, UniProt B3V8B7 1-705)
T1 sequence: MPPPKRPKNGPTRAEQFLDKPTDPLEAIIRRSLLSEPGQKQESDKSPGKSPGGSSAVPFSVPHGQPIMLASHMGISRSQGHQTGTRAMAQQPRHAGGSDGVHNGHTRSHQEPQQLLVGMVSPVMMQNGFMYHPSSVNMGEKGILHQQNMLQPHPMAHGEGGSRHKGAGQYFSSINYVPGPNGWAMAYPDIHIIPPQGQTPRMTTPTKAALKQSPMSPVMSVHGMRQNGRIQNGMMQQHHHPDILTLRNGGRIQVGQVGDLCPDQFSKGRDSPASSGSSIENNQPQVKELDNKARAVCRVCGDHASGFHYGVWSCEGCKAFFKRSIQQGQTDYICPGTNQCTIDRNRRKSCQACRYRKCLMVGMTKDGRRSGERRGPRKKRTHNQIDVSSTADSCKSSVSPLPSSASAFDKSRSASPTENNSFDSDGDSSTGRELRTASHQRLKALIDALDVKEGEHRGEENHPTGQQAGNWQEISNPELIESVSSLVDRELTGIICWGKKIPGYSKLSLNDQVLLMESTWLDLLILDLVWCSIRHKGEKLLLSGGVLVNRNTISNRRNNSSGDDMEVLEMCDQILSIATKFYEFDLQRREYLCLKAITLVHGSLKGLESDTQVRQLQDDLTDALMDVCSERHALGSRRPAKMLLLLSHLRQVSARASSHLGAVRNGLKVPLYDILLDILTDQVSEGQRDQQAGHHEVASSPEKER
Assay: EMSA; EMSA as previously described (ref 93); buffer, salt, pH and temperature not given; in vitro translated proteins in reticulocyte lysate; 10- and 100-fold molar excess of competitors
Details: protein: ivt; chain copies: 2; label: 32P; blunt (only one strand printed; 30 bp stated; strand is nearly self-complementary)

B1: consensus ERE (dsDNA)
DNA 1: CGGGCCGAGGTCACAGTGACCTCGGCCCGT
DNA 2: ACGGGCCGAGGTCACTGTGACCTCGGCCCG
B1: binds.
